The term Kd denotes the free concentration of one partner at which half of the binding sites on the other are occupied at equilibrium, for simple one-to-one binding. Higher therefore signals weaker binding.

Results on one molecule are retold here after article PMC8246641.

This assay has as its target taxol-stabilized microtubules (MTs) (UniProt P02550). Briefly: co-sedimentation.

Ends that are not written are not given here.

B1: GST-ABS6^329–387 (DUF4005 domain of ABS6/AtIQD16, N-terminal GST tag) (domain or fragment)
chain: {GST}-RSASPRIPCSPSSMQPNYMSATESAKAKARTQSTPRRRPMTAKKRLCYAEEESLRSPSF
modifications: cysteine pairing not given here
B1 displayed a Kd of 996 nM.
